This passage reports Ka results from publication PMC4121545.

The series concerns Lac-mCherry (lac repressor-mCherry fusion, dimeric) (Escherichia coli). The series can be described thus: in vitro transcription repression (indirect), global MWC fit. Particulars: no effector, R conformer (KRO); 20 mM Mg2+; 2 mM spermidine; 20 mM Tris-HCl pH 7.9, 20 mM MgCl2, 1 mM DTT, 2 mM spermidine-HCl, NTPs (0.5 mM GTP/ATP/UTP, 0.25 mM CTP), 37 C, 30 min.

On to O1 operator reporter, linearized 450 bp, for which the Ka was determined as 0.42 nM⁻¹.
